# B1: TPR t1 (parent)
# chain: GACCAAUCUGCCCUCAGAGCUCGAGAACAUCUUCGGAUGCAGAGGAGGCAGGCUUCGGUGGCGCGAUAGCGCCAACGUCCUCAACCUCCAAUGCAUCCCACCACAUGAUGAUGCCUGAAGAGCCUUGGUUUUUUG
# Variants of: B1
# Assay: polymerase ribozyme fitness, log enrichment relative to wild type (log ratio); higher = more active; in vitro selection for triplet polymerase activity
# Procedure, shortened: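 Mutant libraries of each subunit of a heterodimeric triplet polymerase ribozyme were built by PCR and transcribed. Each library went through one round of in vitro selection in triplicate: annealing with biotinylated primer, partner subunit and triplets, frozen incubation at −7 °C, gel excision of extended constructs, streptavidin-bead capture and RT-PCR. Input and output libraries were Illumina-sequenced; only genotypes with ≥10 input reads and ≥1 read per output were kept. Fitness is log2(genotype enrichment/wild-type enrichment), using inverse-variance-weighted replicate averages.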
row,Variant,polymerase ribozyme fitness (log ratio)
1,GACCUAUCUGCCCUCAGAGCUCGAGAACAUCUUCGGAUGAAGAGGAGGCAGGCUUCGGUGGCGCGAUAGCGCCAACGUCCUCAACCUCCAAUGCAUCCCACCACAUGAUGAUGCGUGAAAAGCCUUGGUUUUUUG [A5U C40A C115G G120A],-3.72
2,GACCUAUCUGCCCUCAGAGCUCGAGAACAUCUUCGGAUGCAGAGGAGGCAGGCUUCGGUGGCGCGAUAGCGGCAACGUCCUCAACCUCCAAUGCAUCCCACCACAUGAUGAUGCCUGAAGAGCCUUGGUUUUUUG [A5U C72G],-0.174
3,GACCUAUCUGCCCUCAGAGCUCGAGAACAUCUUCGGAUGCAGAGGAGGCAGGCUUAGGUGGCGCGAUAGCGCCAACGUCCUCAACCUCCAAUGCAUCCCACCACAUGAUGAUGCCUGAAGAGCCUUGGUUUUUUG [A5U C56A],-0.829
4,GACCUAUCUGCUCUCAGAGCUCGAGAACAUCUUCGGAUGCAGAGGAGGCAGGCUUCGGUGGCGCGAUAGCUCCAACGUCCUCAACCUCCAAUGCAUCCCACCACAUGAUGAUGACUGAAGAGCCUUGAUUUUUUG [A5U C12U G71U C114A G128A],-4.71
5,GACCUAUCUGCCCUCAGAGCUCGAGAACAUUUUCGGAUGCAGAGGAGGCAGGCUUCGGUGGCGCGAUAGCGCCAACGUCCUCAACCUCCAAUGCAUCCCACCACAUGAUCAUGCCUGAAGAGCCUUGGUUUUUUG [A5U C31U G110C],-6.73
6,GACCUAUCUGACCUCAGAGCUCGAGAACAUCUUCGGAUGCACAGGAGGCAGGCUUCGGUGGCGCGAUAGCGCCAACGUCCUCAACCUUCAAUGCAUCCCACCACAAGAUGAUGCCUGAAGCGCCAUGGUUUUUUG [A5U C11A G42C C88U U106A A121C U125A],-1.65
7,GACCUAUCUGCCCUCAGAGCUCGAGAACAUCUUCGGAUGCAGAGGAGGCAGGCUUCGGUGGCGCGAUAGCGCAAACGUCCUCAACCUCCAAUGCAUCCCACCACAUGAUGAUGCCUGAAGAGCCUUGGUUUUUUG [A5U C73A],-0.847
8,GACCUAUCUGCCCUCAGAGCUCGAGAACAUCUUCGGAUGCAGAGGAGGCAGGCUUCGGUGGCGCGAUAGAGCCAACGUCCUCAACCUCCAAUGCAUUCCACCACAUGAUGAUGCCUGAAGAGCCAUGGUUUUUUG [A5U C70A C97U U125A],-2.48
9,GACCUAUCUGCCCUAAGAGCUCGAGAACAUCUUCGGAUGCAGAGGAGGCAGGCUUCGGUGGCGCGAUAGCGCCAACGUCCUCAACCUCCAAUGCAUCCCACCACAUGAUGAUGCCUGAAGAGCCUUGGUUUUUUG [A5U C15A],-2.36
10,GACCUAUCUGCCCUCAGAGCUCGAGAACAUCUUCGGAUGCAGAGGAGGCAGGCUUCGGUGGCGCGAUAGCGUCAACGUCCUCAACCUCCAAUGCAUCCCACCACAUGAUGAUGCCUGAAGAGCCUUGUUUUUUUG [A5U C72U G128U],-2.15
11,GACCUAUCUGCCCUCAGAGCUCGAGAACAUCUUCGGAUGCAGAGGAGGCAGGCUUCGGUGGCGCGAUAGCGCCAACGUCCUCAACCUCCAAUGCAUCCCACCACAUGAUGAUGACUGAAGAUCCUUGGUUUUUUG [A5U C114A G122U],-1.76
12,GACCUAUCUGCCCUCAGAGCUCGAGAACAUCUUCGGAUGGAGAGGAGGCAGGCUUCGGUGGCGCGAUAGCUCCAACGUCCUCAACCGCCAAUGCAUCCCACCACAUGAUGAUGCCUGAAGAGCCUUGGUUUUUUG [A5U C40G G71U U87G],-3.8
13,GACCUAUCUGCUCUCAGAGCUCGAGAACAUCUUCGGAUGCAGAGGAGGCAGGCUUCGGUGGCGCGAUAGCGCCAACGCCUUCAACCUCCAAUGCAUCCCACCACAUGAUGAUGCCUGAAGAGCCUUGGUUUUUUG [A5U C12U U78C C80U],-1.23
14,GACCUAUCUGGCCUCAGAGCUCGAGAACAUCUUCGGAUGCAGAGGAGGCAGGCUUCGGUGGCGUGAUAGCGCCAACGCCCUCAACCUCCAAUGCAUCCCACCACAUGAUGAUGCCUGAAGAGCCUCGGUUUUUUG [A5U C11G C64U U78C U126C],-0.928
15,GACCUAUCUGCCCUCAGAGCUCGAGAACAUCUUCGGAUGCAGAGGAGGAAGGCUUCGGUGGCGCGAUAGCGCCAACGUCCUCAACCUCCAAUGCGUCCCACCACAUGAUGAUGCCUGAAGAGCCUUGGUUUUUUG [A5U C49A A95G],-0.603
16,GACCUAUCUGCCCUCAGAGCUCGAGAACAUCUUCGGAUGCAGAGGAGGCAGGCUUCGGUGGCGGGAUAGCGCCAACGUCCUCAACCUGCAAUGCAUCCCACCAAAUGAUGAUGCCUGAAGGGCCUUGGUUUUUUG [A5U C64G C88G C104A A121G],-7.55
17,GACCUAUCUGCCCUCAGAGCUCGAGAACAUCUUCGGAUGCAGAGGAGGCAGGAUUCGGUGGCGCGAUAGCGUCAACGUCCUCAACCUCCAAUGCAUCCCACCAUAUGAUGAUCCCUGAAGAGCCUUGGUUUUUUG [A5U C53A C72U C104U G113C],-2.38
18,GACCUAUCUGCCCUCAGAGCUCGAGAACAUCUUCGGAUGCAGAGGAGGCAGGCUUCGGUGGCGCGAUAGCGCCAACGUCCUCAACGUCCAAUGCAUCCCACCACAUGAUGAUGCCUGAAGAGCCUUGGUUUUUUG [A5U C86G],-1.26
19,GACCUAUGUGCCCUCAGAGUUCGAGAACAUCUUCGGAUGAAGAGGAGGCAGGCUUCGGUGGCGCGAUAGCGCCAACGUCCUCAACCUCCAAUGCAUCCCACCACAUGAUGAUGCCUGAAGAGCCUUGGUUUUUUG [A5U C8G C20U C40A],-3.31
20,GACCUAUCUGCCCUCAGAGCUCGAGAACAUCUUCGGAUGCUGAGGAGGCAGGCUUCGGUGACGCGAUAGCGCCAACGUCCUGAACCUCCAAUGCAUCCCACCACAUGAUGAUGCCUGAAAAGCCGUGGUUUUUUG [A5U A41U G61A C82G G120A U125G],-2.7
21,GACCUAUCUGCCCUCAGAGCUCGAGAACAUCUUCGGAUGCAGUGGAGGCAGGCUUCGGUGGCACGAUAGCGCCAACGUCCUCAACCUCCAAUGCAUCCCACCACAUGAUGAUGCCUGAAGAGCCUUGGUUUUUUG [A5U A43U G63A],-3.99

# From the RNAGym collection of RNA variant scans (doi:10.1073/pnas.2313332121)
